Experimental data from PMC4183798.

Molecular target: Fc-Nxph1mat-N146D/N156D/N162D (rat) (UniProt Q63366)
Test: SPR; reversed experiment: purified Fc-Nxph1·LNS2-HA complex (formed by co-expression) bound covalently and randomly to a CMD 200m chip (EDC-NHS); running buffer 50 mM Tris pH 7.4; serial injections of elution solutions (pH 4, pH 8.9, 0.25–4 M NaCl, 5 mM EDTA, 6 M urea, 7 M guanidinium chloride); Reichert SR7000DC

Chain of UniProt Q63366 (Q63366 22-271 N146D/N156D/N162D): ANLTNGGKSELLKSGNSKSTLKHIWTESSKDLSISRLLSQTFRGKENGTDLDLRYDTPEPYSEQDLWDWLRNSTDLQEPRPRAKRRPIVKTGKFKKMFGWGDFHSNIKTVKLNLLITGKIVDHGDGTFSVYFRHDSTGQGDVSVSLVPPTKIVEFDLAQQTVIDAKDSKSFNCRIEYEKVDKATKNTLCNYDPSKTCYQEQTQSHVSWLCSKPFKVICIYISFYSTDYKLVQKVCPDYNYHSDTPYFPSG

Substance: C-terminally hemagglutinin (HA)-tagged LNS2 (domain or fragment)
- percent of the complex released after injection of 1 M NaCl: 9%
